Assay results: the domain aggregation screens of Martell et al. (2025)

Test: soluble fraction after stress (log2 fold change); higher = more stays soluble; pooled small domains, quantitative proteomics
Details: stress: 75 degC
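Note: 20 min heating vs room temperature control held 20 min.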

Sequence | soluble fraction (log2)
HMGDSFLDHKKELQSMILSRLDLSREVPDEEIKDIIDELIIAQSKKLFLSLNDRGKLRQELFYSIRK | -1.23
HMGDSVLNDKLNTLAGLDEERFKWVLASLNPNNSYSTHSDKMSALMWLVSYFNDEADLKETVPPLPI | -0.189
HMGDTIFINNNFYVKHIVEFGETIDIISKIYDVSVNKILETNETSTKLYSGQSLFIPININV | -3.47
HMGDTLEIVVIYSNKQKAEEAVNNLKGKFEDLGYNFAIITVDTSKITQLAMESSIQYIEFPKSFYFSD | -4.25
HMGDVATVKLDNNGLLNMRKSDARGADIVARIPNGTVVQVLNRETEWTQVRYDGKEGYVMSSFLQFAE | -0.047
HMGDVPESLVEKAGHSINAKIISAWGMTETGASTMTRPQDDPERAIYSDGVVLPLMDVRVVNDAGLA | -0.167
HMGDWEKALAQFAAHRLANGSTAFLDEMYPIFERILLQAALNKTGGRKIEAAELLGWGRNTLTRKLKELGF | -2.2
HMGDYERVPEYKGKLTSDLTMEDSQKFAFRFIWQNSDEDEGKIIDQDPPAGKSVAKGSEIVLYVSNG | 0.474
HMGEAAIYRINILINNLNVRSGPGTLYPRLRRADFPGEYDIFEEKNGFGRISNTKSEWVSLNTQYVQRLT | -2.8
HMGEAIPVPDLKHKALTDAEHLVHELGLEIQVVDTGYVKSLPADYILGQSLAPGEKVKSGHIIYVTINSP | -1.23
HMGEGTAVGKALKFLAAQGKKFAPELLDMAGSLTGVEALSKLGDAIKGDPELSELDKRILLAELETDAV | -0.171
HMGEIHALIPGLVSRLFVKPGDRVENGQGLLILEAMKMENEIDSPISGVVGKIYIKAGDKVEKGELIMEIN | -1.45
HMGEIVVPDLIGKSLTEATRILSDSTLTVGKVNYQISSTLLPNTVLDQYPAPGNKLNSGNTVDLFITKE | 0.068
HMGEKTLSEKVYDRLKELIMDGELERGTKITETSIAKMFDVSPTPVREAFRKLASDGLIEVASWKGVIVKG | -0.378
HMGELYGTDQYKDGDAQDTNIGKLLEVNIDGKWQVATTGTSRFEFAGVMDDNGHKLIMISVLPEAKTV | 0.0596
HMGEPLSPDARALTNVLRHYRGWAEPGELARKSGLGSRERVLTAAQSLVNAGLADIERGMVRPTAALMEVQ | 0.0619
HMGEPVASSREVAKRFGKEHKHVLAAIRQILVAENSATKFFHETAFEYRGQRFPEYLMNRDGFALLAMGF | -3.15
HMGEPVNSPMPGTILRVEVTQGAAVKEGQLLVVLEAMKMENEILAPKDGTVAQVVVQKGSHVETGSPLIVL | -0.508
HMGEQLALLERARTLLEDETLETEVQKELEMLLEDIEAARAEANATQLEDLFEELADLLFDLE | 0.316
HMGEQYYVLIDNKQNGPHNINAIQKMIDQNIVNRQTLIWKKGMTDWGNIMDDKDLKEMVNKIP | 0.111
HMGERMELTLDNPREAIPVLDAMGFANYQVVDKEHIHIFERLNESALVNMELAKAGIPVKGISITSE | 0.0918
HMGESEWIVKWRGEKRDEERLQESELVRDDPEHRISVVRPRDDVDASAWLNRWRKSRYVQYIQPNHRVTIS | 0.568
HMGESFPYVAYATDSVRLRARPSSSATILTVIRKGDAVLITGADGSYKIVEYEGRKGYVVSAFLSSQET | -2.51
HMGESVQVPSYVGMGFREAARKARARDFGVAVSDSIYVPGKPPGEIIAQDPKAESRVKEGRTIYFTVAK | -0.109
HMGETAFRYALPLDQGEALKRSHVIRQSISPDDALATRVTVLEDVLDQTLRQPVQAGEVLLEDHFTR | -0.0825
HMGETRWTYDDFGNILTEKAAPYSATEFLGKTYTYDTDNRYLKTVTDALGRTTTTLSYDKYGNPLSVMD | 0.115
HMGETWYEILEISSDATTEEIRQAYFEQARQYHPDTNPGELAREWFYQVQEAYETLSDPDRRRQYDESIKG | -0.0285
HMGEVEVPDLVGIEAIQAKTLLFNSDFLIKEFYDYDPTQPIGVVIRQAPEAGTTQTIGDSVTITINRA | -0.334

Sequence | soluble fraction (log2)
HMGEVISRSYPLLKTKAKPAEVSEALQKLIKAPATVTFDEKNEVFHINATRLQHTWAEGYFKGLHGK | -0.14
HMGEVPPGWSVEALAAIERDLAHHVGPVARVLVQRGARLHTTTDDLRSALANAITDDLARRRFMQP | -0.575
HMGFEALRSRHRITAREMEVLQHMLAGRSNAEIGHTLGLSERTVKTHITSIFNKLGVDSRAQLGYMLK | -1.87
HMGFLTKTQRLEILLHLKDEPYYNVEKLKELIKNRYGIVYQSSQSYYDLLKEAGLSWHQTQA | -2.33
HMGFVTVTEVDTTADLKLARVYVSVLGPEEQWAKSFTALESARGFVWNWLRKHLDLRVTPQLAF | -1.08
HMGGASVTDQQIRDFVSAHTDDPMAIYKAAVANGISSARLAQVTGISIADIEAFVRKNNLPSF | -0.0535
HMGGEEINMINLVGLSQSEAENQLAKLKLKIGQVTAEYSDKPSGTVLKQSISANNKVKKGADIDIVVSKG | -0.0126
HMGGELLSLRRIGTLTGISYPTLLRYVARYGEQIPQTGTGRSRRFPPAAVPVFQELRATRGRAPRATA | -0.104
HMGGEPKALLFAGVETREMAEITQRLEAADIPYEIREDGGSIYVARSEVFNARMMLSADGLPS | -0.455
HMGGFNATTLQNIEELRRSLSDADQFGRHEVIETIGGSDSRAGKLLKKMLEAGIIEQVKGHGKGRYRFKRT | 0.0983
HMGGGEYTVAKGDTLWKIAAQTLGSPTRYAEIYNLNKDVIEETARGRGKRDSSNGHWLFPGTALKIPGT | 0.421
HMGGGFLVPSLVGKSLEEARSLSELRGFKLEVGDYVISSEYPAGRVTRQNPANGAKGQEGDVIKVEVSS | -0.00395
HMGGGRELGLDPETGKKISVRLGKFGPFVQLGESGEEDKPVFANLGKNQSIATLSLEEAIALLARPK | 0.187
HMGGGVSSSLAGNVFKVLLPAGSVVEQGQAVIVLEAMKMETEVNAPKSGSVSSVFVNEGDTVEVGDLLFAI | -0.0461
HMGGKWKAIIIYHLKNGPKRFGELRRALISSTETVLSNQLKQLEQDGLVSRQVFGTKPPLKTVYSLTDFG | -3.3
HMGGKWKLRILLALENSAQDALRYGEIKNIVSGITDMMLSQSLRELTADGLIERRQYQEIPPKVEYRLS | -2.31
HMGGKWKPIILYYININSVARYSELKRFIPSINERMLTRQLRELEEDNLIERKVYPIVPPKVEYRLTEYGK | -0.179
HMGGKWSMPIIYILSKGKMRFKELERSVEGINTRMLVKELKNMEANGIVTREVFPTVPPTVEYALT | -0.968
HMGGKYKGVIIGHLIDKTLRYNELQKLISHATPKMLIQQLKELEADGIIQRKLYPVVPPKTEYSLTERG | -0.973
HMGGLAEGTKITLQNTVNVRASMGEDAEKIGTAYAGEKVTVIMSYAEGWTKVTWNDKTGYIKTSLL | -1.5
HMGGLAHPASGEEMEHLFAHLEGELLKSGFLFPPDKAAGMMRNIRAMLTRADFTDQEVRTLRGMIVALSRG | -1.62
HMGGNDALEIAKSNPQVIEVLGEPVTKDGMGSYSVNYKNGHKTSEATIPIEGPNGTATLHVKTSGSDDAL | 0.237
HMGGNKILTWKTDAATTRNQVPINERKEGLEISYKNEERNWVAEKYVGTSFSDDKWGVDYNWNQD | 0.951
HMGGPAGPDFTYTGDDLTRIDYDDGSYKVFTYDAGKLSQIDFTSGGTTTRKTFVYSGDTLIRVDQTI | -0.179
HMGGPEPIPAQIREGDTVYVTKFKQLGLVLKISEDTAEVQIGPLRATVAKTELSKVDATATEHR | -0.0822
HMGGQFVKVEVIAQIFGVTVRRVQQLTQEGVVKTTEIPGEGRRYELVPTIKTYIQYLSDKAY | -4.02
HMGGTFLVRILDPALNIRAQPSLTARINGVIRDKSVYTIVATSFEPKTQITWGKLKSGAGWISIGSKYVKK | -3.4
